The source of these data is paper PMC4454046, “Aptamer-based Sandwich Assay and its Clinical Outlooks for Detecting Lipocalin-2 in Hepatocellular Carcinoma (HCC)”.

The labels stand for the following.
B1: LCN2_apta33 (ssDNA)
DNA: ATACCAGCTTATTCAATTCACGACGATAGTGCAGTGGATACATTCGGCCCTTACCATGAGATAGTAAGTGCAATCT
B2: LCN2_apta3 (ssDNA)
DNA: ATACCAGCTTATTCAATTCCCAAGGGCGAGCTGGCGGCTTGTTGCATAAATTCGTGGAGATAGTAAGTGCAATCT
B3: LCN2_apta8 (ssDNA)
DNA: ATACCAGCTTATTCAATTCGACAATAGATCAGAACGCTCGAGTTCGCGAGGTGGGGGAGATAGTAAGTGCAATCT
B4: LCN2_apta34 (ssDNA)
DNA: ATACCAGCTTATTCAATTCGGAGCGGTAGTTTGAGGAGGAAACAACCCGGCCTTGGAGAGATAGTAAGTGCAATCT
B5: LCN2_apta16 (ssDNA)
DNA: ATACCAGCTTATTCAATTCCGCGTCACCTCACTGCTCCCACCTGCGTTGCGTCTCTAAGATAGTAAGTGCAATCT
B6: LCN2_apta26 (ssDNA)
DNA: ATACCAGCTTATTCAATTCCAACACCTTGGGTATCCTGTTATATTCACTTGTTGAGTAAGATAGTAAGTGCAATCT
B7: LCN2_apta22 (ssDNA)
DNA: ATACCAGCTTATTCAATTCCAACGAGGATGCCAAAGAAAGGTGAGGTGGTCCTAAGGGAGATAGTAAGTGCAATCT
B8: LCN2_apta15 (ssDNA)
DNA: ATACCAGCTTATTCAATTCCACACCAGTCCTTGTTCGTAGATCACGGTTTCTTCAGGAAGATAGTAAGTGCAATCT
B9: LCN2_apta4 (ssDNA)
DNA: ATACCAGCTTATTCAATTCGGAGGGCGGAAGCAAAGCGTAACAGAAAGCCAACACGCGAGATAGTAAGTGCAATCT
B10: LCN2_apta10 (ssDNA)
DNA: ATACCAGCTTATTCAATTGGCAGTAGGGCGGGGGGGAGCATGGAGCACATTCTTGTCGAGATAGTAAGTGCAATCT
B11: LCN2_apta20 (ssDNA)
DNA: ATACCAGCTTATTCAATTCCACAAACGGTACTGGACAGTTCTTATATGCTTACATTTGAGATAGTAAGTGCAATCT
B12: LCN2_apta29 (ssDNA)
DNA: ATACCAGCTTATTCAATTCCGTGACAAGTTGCAGGGGCTGTGCGGTTCTTTTTTTTTGAGATAGTAAGTGCAATCT
B13: LCN2_apta25 (ssDNA)
DNA: ATACCAGCTTATTCAATTGCCACTCGACATGCTTGCCTGTACACTAAAACACTATTCAGATAGTAAGTGCAATCT
B14: LCN2_apta7 (ssDNA)
DNA: ATACCAGCTTATTCAATTCCGCGTCACCTCACTGCTCCCACTGCGTTGCGTCTCTAAGATAGTAAGTGCAATCT
B15: LCN2_apta32 (ssDNA)
DNA: ATACCAGCTTATTCAATTCGAGTCATTGTTTTGCAAAGGATTATGCGTTGTAACGGAGAGATAGTAAGTGCAATCT
B16: LCN2_apta30 (ssDNA)
DNA: ATACCAGCTTATTCAATTGCACGGGTAAGAAAACGGGGAACTTGAAAGTAGTGCTGTGAGATAGTAAGTGCAATCT
B17: LCN2_apta11 (ssDNA)
DNA: ATACCAGCTTATTCAATTGCGATCGACGCCTGGAGAAGTTCCAGCATTAGCGTAAGTGAGATAGTAAGTGCAATCT
B18: LCN2_apta23 (ssDNA)
DNA: ATACCAGCTTATTCAATTCGTATCAGAATCGCGTGTCACCTTATCTGCCGTATGGGTGAGATAGTAAGTGCAATCT
B19: LCN2_apta2 (ssDNA)
DNA: ATACCAGCTTATTCAATTCCACAGTAGGTGAGGTTCACTGAGTTATCCATTGTTGGCAAGATAGTAAGTGCAATCT
B20: LCN2_apta17 (ssDNA)
DNA: ATACCAGCTTATTCAATTCACGTGCGACAGGGGGATCTGGCTTTATCCCAGCGTGTTAAGATAGTAAGTGCAATCT
B21: LCN2_apta5 (ssDNA)
DNA: ATACCAGCTTATTCAATTCCCAGCAATCCATTACTTCGTTAGTTCTAATTACCAACCAGATAGTAAGTGCAATCT
B22: LCN2_apta19 (ssDNA)
DNA: ATACCAGCTTATTCAATTCGACAAAGGAGCTACGTCTACATAGCGTGGTGAGTGCTTGAGATAGTAAGTGCAATCT
B23: LCN2_apta18 (ssDNA)
DNA: ATACCAGCTTATTCAATTCCAGCAAGTAAAGGTTATTTACTAGTTAGGGGCTTCTTGAGATAGTAAGTGCAATCT
B24: LCN2_apta21 (ssDNA)
DNA: ATACCAGCTTATTCAATTCCGGATTTTCGCACGGCTAGCGGGGAACCACTGTCTGGGAGATAGTAAGTGCAATCT
B25: LCN2_apta1 (ssDNA)
DNA: ATACCAGCTTATTCAATTGCCACGACTTGGGGAATCCTAAGGGCTGTGAACGCCGTGGAGATAGTAAGTGCAATCT
B26: LCN2_apta31 (ssDNA)
DNA: ATACCAGCTTATTCAATTCCCGATCAGAACATCGGCTCTTATACCCGTTTTGGTCACGAGATAGTAAGTGCAATCT
B27: LCN2_apta12 (ssDNA)
DNA: ATACCAGCTTATTCAATTCAGGGAAAGGTTACGCGACACATTAGTTTTGAGTCCGTTCAGATAGTAAGTGCAATCT
B28: LCN2_apta6 (ssDNA)
DNA: ATACCAGCTTATTCAATTGCACGGTACGCTCTTGAGTGATCCACAATTTCTAACCGCGAGATAGTAAGTGCAATCT
B29: LCN2_apta24 (ssDNA)
DNA: ATACCAGCTTATTCAATTGGGGAACTGAATTATCAGAGATTTTATTCACCTCGTTGGGAGATAGTAAGTGCAATCT
B30: LCN2_apta13 (ssDNA)
DNA: ATACCAGCTTATTCAATTCGCGGCCTAACTTTGGAAGTTCCTCAGAATACTCAGTTGAGATAGTAAGTGCAATCT
B31: LCN2_apta27 (ssDNA)
DNA: ATACCAGCTTATTCAATTGCGATAATCTTGGTTTTCTTTTCAGTTTCTTTAGGGCGGGAGATAGTAAGTGCAATCT

In the series the target is Lipocalin-2 (LCN2, NGAL) (human, UniProt P80188 21-198). Nature of the series: SPR (BIAcore 3000, CM5 chip); SPR BIAcore 3000, 24 C, LCN2 amine-coupled to CM5 chip; running buffer for the Kd assay not stated (HBS-EP used for SA-chip activation). To be noted: protein: recombinant; tags: C-terminal polyhistidine.
Lipocalin-2 (LCN2, NGAL), sequence (P80188 21-198): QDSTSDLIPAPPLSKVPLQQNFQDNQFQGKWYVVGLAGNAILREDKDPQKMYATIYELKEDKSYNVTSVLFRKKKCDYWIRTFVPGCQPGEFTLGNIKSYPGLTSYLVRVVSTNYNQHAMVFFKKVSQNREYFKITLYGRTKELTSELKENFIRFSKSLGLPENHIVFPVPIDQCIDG
For B1, the binding result is given as “no binding”.

One may read the Kd as the free concentration of one partner at which half of the binding sites on the other are occupied at equilibrium, for simple one-to-one binding. On to B2, for which the Kd was 0.00719 nM. Regarding B3, the Kd turned out to be 3.42 nM. On to B4, for which the Kd worked out at 2870 nM. As to B5, the Kd is 220 nM. For the molecule B6, the Kd was found to be 118 nM.

With B7, the Kd turned out to be 8440 nM.

Turning to B8, the binding result is “no binding”. For the molecule B9, the Kd came out at 0.0609 nM. Consider B10, for which the Kd is 99.9 nM. With B11, the dissociation constant Kd amounted to 10.9 nM. Turning to B12, the Kd was 565 nM.

In the case of B13, the binding result is on record as “no binding”. Consider B14, for which the Kd is 1.1 nM.

With B15, the binding result was “no binding”.

Turning to B16, the Kd came out at 86.4 nM. Consider B17, for which the binding result is “no binding”. On to B18, for which the Kd came out at 158 nM.

As to B19, the Kd came out at 0.00224 nM. As for B20, the binding result is “no binding”. B21: the Kd is 0.0816 nM. B22: the Kd was found to be 66.6 nM. Consider B23, for which the Kd is 3380 nM. Regarding B24, the Kd worked out at 872 nM. Turning to B25, the Kd stood at 0.000647 nM. On to B26, for which the Kd was 1780 nM. Turning to B27, the Kd was determined as 84.5 nM.

Regarding B28, the Kd worked out at 0.801 nM. With B29, the binding result is “no binding”. With B30, the binding result was “no binding”. Turning to B31, the Kd turned out to be 13.9 nM.
